The values that follow come from patent publication US8986655B2, “Compositions, devices, and methods related to prostate-specific membrane antigen” (The Regents of the University of California, priority 2009, dated 2015).

One assay concerns the target homodimeric PSMA (Homo sapiens, UniProt Q04609). As to the kind of experiment: Phage-based ELISA, binding to PSMA dimer. The note with it: for binding to PSMA dimer: phage-displayed peptide, 1 μg/mL PSMA dimer, ELISA (FIG. 5); for relative binding affinity to PSMA compared with parent peptide 2: 1 μg/mL homodimeric PSMA, half of the binding time (FIG. 1A). From the text:
(§1) An eight residue long peptide with the amino acid sequence […] [SEQ ID NO: 1], was previously identified as a PSMA binder from an 8-mer (X8) library. […] (also referred to as peptide 1 in the Figures) to PSMA as reported previously. In addition to […] [SEQ ID NO: 1], the inventors also examined a longer 13-mer peptide, selected from a disulfide-constrained library with the amino acid sequence […] [SEQ ID NO: 3] (also referred to as peptide 2 in the Figures).
The five peptides [SEQ ID NOs: 4-8] […] These peptides were assayed for binding to 1 μg/mL of homodimeric PSMA, a concentration 10-fold less than the parent peptide required for binding assays. This higher stringency can better distinguish very high from moderate affinity binders. […] FIG. 1A illustrated peptides selected from homolog shotgun scanning library. FIG. 1B illustrates relative affinity of selected peptide 3 [SEQ ID NO: 4] versus the previous highest affinity peptide 1 [SEQ ID NO: 2]. FIG. 1C illustrates a bar graph showing that 20 nM phage displaying peptide 1 [SEQ ID NO: 2] has binding affinity similar to that of 0.2 nM phage displaying peptide 3 [SEQ ID NO: 4], and 20 nM phage displaying parent peptide 2 [SEQ ID NO: 3] has binding affinity similar to 0.02 nM phage displaying peptide 3 [SEQ ID NO: 4].
A phage-based ELISA was performed using purified peptide 10 to determine whether the peptide enhances the binding to immobilized PSMA. […] Here, the graph illustrates results for the phage displaying peptide 3 [SEQ ID NO.4], wrapped with peptide 10 binding 1 μg/mL PSMA dimer

The target in a further assay is PSMA (Homo sapiens, UniProt Q04609). The following applies: phage-displayed ELISAs, QCM, EIS; as reported previously; cited from earlier work.
PSMA, sequence (Q04609 whole entry): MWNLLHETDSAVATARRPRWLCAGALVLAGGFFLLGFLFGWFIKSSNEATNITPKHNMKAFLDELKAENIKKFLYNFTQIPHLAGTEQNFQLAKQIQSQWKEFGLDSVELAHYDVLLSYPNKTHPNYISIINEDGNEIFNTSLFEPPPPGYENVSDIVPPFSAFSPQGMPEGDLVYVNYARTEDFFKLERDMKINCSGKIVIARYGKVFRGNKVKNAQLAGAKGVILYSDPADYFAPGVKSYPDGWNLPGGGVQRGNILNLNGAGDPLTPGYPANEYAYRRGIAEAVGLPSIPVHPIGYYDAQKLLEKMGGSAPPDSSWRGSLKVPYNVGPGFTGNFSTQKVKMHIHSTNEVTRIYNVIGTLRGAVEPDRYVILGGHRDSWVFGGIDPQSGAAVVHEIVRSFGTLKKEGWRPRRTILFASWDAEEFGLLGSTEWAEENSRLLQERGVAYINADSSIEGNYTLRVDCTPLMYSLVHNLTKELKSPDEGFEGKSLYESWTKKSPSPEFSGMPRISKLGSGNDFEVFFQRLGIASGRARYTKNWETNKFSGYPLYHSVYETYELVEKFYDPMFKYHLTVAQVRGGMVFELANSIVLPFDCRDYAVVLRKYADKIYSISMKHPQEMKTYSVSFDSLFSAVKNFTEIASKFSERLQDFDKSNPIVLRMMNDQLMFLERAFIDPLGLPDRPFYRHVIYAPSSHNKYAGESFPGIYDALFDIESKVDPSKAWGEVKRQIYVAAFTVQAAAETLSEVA
For the next assay, the target named is PSMA monomer (Homo sapiens, UniProt Q04609). As to the kind of experiment: Phage-displayed ELISA, binding to PSMA monomer. The following applies: phage-displayed peptide, 1 μg/mL PSMA monomer, ELISA (FIG. 5).
PSMA monomer, sequence (Q04609 whole entry): as above
Source text: as §1
For orientation: ELISA stands for enzyme-linked immunosorbent assay.

Assay [1] concerns the target transferrin receptor (TfR) (Homo sapiens, UniProt P02786). Description: Cross-reactivity for binding transferrin receptor. The following applies: homolog of PSMA (54% sequence identical). The text has this: It should be noted that the two substitutions incorporated in the sequence of peptide 3 [SEQ ID NO: 4] were L1S and D2E. The serine substitution removes a hydrophobic leucine residue, which provides the peptide with a more polar side chain, which can accept and donate hydrogen bonds (H-bonds). The hydroxyl group likely improves the surface complementarity at the binding interface with PSMA by creating new H-bonding contacts with the protein backbone, or by participating in an extended H-bonding network directly or indirectly through water to other side chains at the binding site. The selection of Glu in place of Asp merely extends the side chain length by one carbon unit. This substitution maintains contribution of the carboxylate functionality, and the length extension of 1.5 Å could allow for new H-bonding or salt-bridging opportunities. Clearly, the core sequence of the selected peptides is critical for the molecular recognition of PSMA, and this core remained conserved in the tightest binding peptides.

Setting [2] is: phage-based ELISA with 20 nM phage, phage concentration versus HRP activity (FIGS. 1B, 1C).

homodimeric PSMA, sequence (Q04609 whole entry): as above
transferrin receptor (TfR), sequence (P02786 whole entry, species assumed): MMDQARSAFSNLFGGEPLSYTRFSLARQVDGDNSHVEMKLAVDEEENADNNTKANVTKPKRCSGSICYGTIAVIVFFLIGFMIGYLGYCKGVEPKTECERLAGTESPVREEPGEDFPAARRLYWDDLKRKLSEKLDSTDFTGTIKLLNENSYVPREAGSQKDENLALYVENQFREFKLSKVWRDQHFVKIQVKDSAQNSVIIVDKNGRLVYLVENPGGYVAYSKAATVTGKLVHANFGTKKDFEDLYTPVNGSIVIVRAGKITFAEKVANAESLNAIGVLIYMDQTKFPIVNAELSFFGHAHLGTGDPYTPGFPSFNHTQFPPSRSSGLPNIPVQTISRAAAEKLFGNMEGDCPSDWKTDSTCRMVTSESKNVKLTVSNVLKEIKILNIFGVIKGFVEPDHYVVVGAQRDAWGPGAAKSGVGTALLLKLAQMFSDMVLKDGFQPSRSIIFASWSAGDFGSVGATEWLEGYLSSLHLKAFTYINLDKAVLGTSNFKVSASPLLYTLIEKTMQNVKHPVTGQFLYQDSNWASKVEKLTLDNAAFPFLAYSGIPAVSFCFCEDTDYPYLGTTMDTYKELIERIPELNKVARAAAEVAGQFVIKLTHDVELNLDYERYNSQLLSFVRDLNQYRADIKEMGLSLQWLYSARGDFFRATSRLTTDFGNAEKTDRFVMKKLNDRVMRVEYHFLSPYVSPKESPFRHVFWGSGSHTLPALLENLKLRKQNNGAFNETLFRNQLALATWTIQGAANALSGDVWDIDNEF

In the case of “CALCEFLG (Synthetic oligopeptiide) [peptide 1, reference compound]”, the “apparent affinity for dimeric PSMA relative to the monomeric isoform” value with homodimeric PSMA (phage-displayed ELISA, dimer versus monomer) was “exceeds affinity for the monomeric isoform”. Further, the “binding to PSMA dimer” value with homodimeric PSMA was “efficient binding”; with homodimeric PSMA (listed as Peptide 1), “higher affinity to PSMA dimer than peptide 2”. Further, the “binding to PSMA” value in the assay with PSMA was “strong binding”. Further, the “binding to PSMA monomer” value with PSMA monomer is “efficient binding”.

For “LDCVEVFQNSCDW [peptide 2, 13-mer peptide selected from a disulfide-constrained library; parent of the homolog library]”, the “binding to PSMA dimer” value with homodimeric PSMA is “only binds to dimeric PSMA”. For the same sequence, the “binding to PSMA monomer” value is on record as “fails to bind the monomer with significant affinity” with PSMA monomer and “does not bind PSMA monomer with appreciable affinity” in the assay with PSMA monomer (listed as Peptide 2).

With “SDCVEVFQNSCDW [compound 4, peptide from the homolog shotgun scanning library]”, the “relative binding affinity to PSMA compared with parent peptide 2” value in the assay with homodimeric PSMA was “higher affinity towards the target”.

“SECVEVFQNSCDW [peptide 3, peptide from the homolog shotgun scanning library]”: the “relative binding affinity to PSMA compared with parent peptide 2” value in the assay with homodimeric PSMA is listed as “higher affinity towards the target”. In addition, in the assay with homodimeric PSMA (PSMA 1 μg/mL (FIG. 1C)), the “phage concentration with binding affinity similar to 20 nM phage displaying parent peptide 2” value is reported as 0.02 nM and the “phage concentration with binding affinity similar to 20 nM phage displaying peptide 1” value was 0.2 nM. In addition, in the assay with homodimeric PSMA (setting [2]), the “fold higher affinity for PSMA compared to parent peptide 2” value is “≈ 1000 times” and the “fold higher affinity for PSMA than peptide 1” value was “≈ 100 times”. Besides, the “cross-reactivity for binding transferrin receptor (TfR)” value in assay [1] is recorded as “no detectable cross-reactivity”.
